The record followed here is paper PMC8044712 (STAR Protocols, 2021).

This test has as its target T1, ΔN100 y-mtRNAP (yeast mitochondrial RNA polymerase lacking the N-terminal 100 residues) (S. cerevisiae, UniProt P13433 101-1351).
T1 sequence (looked up): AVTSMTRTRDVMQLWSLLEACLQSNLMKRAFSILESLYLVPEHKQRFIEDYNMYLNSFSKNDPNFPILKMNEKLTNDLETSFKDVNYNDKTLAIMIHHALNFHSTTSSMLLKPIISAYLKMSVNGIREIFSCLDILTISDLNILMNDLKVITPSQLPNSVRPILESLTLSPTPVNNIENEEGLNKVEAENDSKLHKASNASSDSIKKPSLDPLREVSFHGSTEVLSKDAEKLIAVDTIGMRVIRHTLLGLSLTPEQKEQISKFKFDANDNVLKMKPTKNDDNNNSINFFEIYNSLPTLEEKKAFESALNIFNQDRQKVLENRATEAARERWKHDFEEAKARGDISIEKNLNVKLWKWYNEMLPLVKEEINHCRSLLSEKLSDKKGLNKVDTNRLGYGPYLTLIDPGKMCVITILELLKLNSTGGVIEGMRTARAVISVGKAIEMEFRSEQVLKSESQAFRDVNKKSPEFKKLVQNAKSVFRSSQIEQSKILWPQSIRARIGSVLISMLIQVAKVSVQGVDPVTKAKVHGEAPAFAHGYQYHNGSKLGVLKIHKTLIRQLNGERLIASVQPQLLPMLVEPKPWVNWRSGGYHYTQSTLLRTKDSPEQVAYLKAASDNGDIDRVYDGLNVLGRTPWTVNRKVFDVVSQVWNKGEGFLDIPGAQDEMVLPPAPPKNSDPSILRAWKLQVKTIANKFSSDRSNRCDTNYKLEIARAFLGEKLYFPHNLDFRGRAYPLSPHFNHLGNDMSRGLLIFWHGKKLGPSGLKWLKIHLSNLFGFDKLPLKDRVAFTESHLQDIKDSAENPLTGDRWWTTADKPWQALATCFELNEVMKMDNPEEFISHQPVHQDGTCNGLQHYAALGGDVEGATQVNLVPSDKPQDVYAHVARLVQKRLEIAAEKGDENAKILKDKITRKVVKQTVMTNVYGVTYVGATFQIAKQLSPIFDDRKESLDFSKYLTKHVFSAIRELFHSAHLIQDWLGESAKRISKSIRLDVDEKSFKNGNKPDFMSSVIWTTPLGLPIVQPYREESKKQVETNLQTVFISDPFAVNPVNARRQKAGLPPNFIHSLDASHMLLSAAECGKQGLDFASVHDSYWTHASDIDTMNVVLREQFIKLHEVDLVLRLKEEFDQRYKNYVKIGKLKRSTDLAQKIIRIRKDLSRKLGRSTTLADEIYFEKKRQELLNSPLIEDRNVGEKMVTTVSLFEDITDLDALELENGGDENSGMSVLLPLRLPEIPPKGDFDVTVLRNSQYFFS
Description: cryo-EM structure.

B1: His-6 tagged MTF1 from S. cerevisiae (mitochondrial transcription initiation factor MTF1) (natural protein)
chain: SVPIPGIKDISKLKFFYGFKYLWNPTVYNKIFDKLDLTKTYKHPEELKVLDLYPGVGIQSAIFYNKYCPRQYSLLEKRSSLYKFLNAKFEGSPLQILKRDPYDWSTYSNLIDEERIFVPEVQSSDHINDKFLTVANVTGEGSEGLIMQWLSCIGNKNWLYRFGKVKMLLWMPSTTARKLLARPGMHSRSKCSVVREAFTDTKLIAISDANELKGFDSQCIEEWDPILFSAAEIWPTKGKPIALVEMDPIDFDFDVDNWDYVTRHLMILKRTPLNTVMDSLGHGGQQYFNSRITDKDLLKKCPIDLTNDEFIYLTKLFMEWPFKPDILMDFVDMYQTEHSG
B1: the binding result is on record as “binds”.
